Earlier results on one substance are cited in article PMC5033469.

In this data set the target is CD11c I domain (Homo sapiens) (UniProt P20702).
Chain of CD11c I domain (Homo sapiens) (P20702 165-339): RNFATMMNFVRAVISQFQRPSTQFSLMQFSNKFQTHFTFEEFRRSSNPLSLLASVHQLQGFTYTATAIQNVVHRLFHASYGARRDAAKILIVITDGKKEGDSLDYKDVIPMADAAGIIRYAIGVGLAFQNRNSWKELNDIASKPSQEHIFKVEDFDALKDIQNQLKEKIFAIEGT

Chain of fibrinogen (P02671 36-866): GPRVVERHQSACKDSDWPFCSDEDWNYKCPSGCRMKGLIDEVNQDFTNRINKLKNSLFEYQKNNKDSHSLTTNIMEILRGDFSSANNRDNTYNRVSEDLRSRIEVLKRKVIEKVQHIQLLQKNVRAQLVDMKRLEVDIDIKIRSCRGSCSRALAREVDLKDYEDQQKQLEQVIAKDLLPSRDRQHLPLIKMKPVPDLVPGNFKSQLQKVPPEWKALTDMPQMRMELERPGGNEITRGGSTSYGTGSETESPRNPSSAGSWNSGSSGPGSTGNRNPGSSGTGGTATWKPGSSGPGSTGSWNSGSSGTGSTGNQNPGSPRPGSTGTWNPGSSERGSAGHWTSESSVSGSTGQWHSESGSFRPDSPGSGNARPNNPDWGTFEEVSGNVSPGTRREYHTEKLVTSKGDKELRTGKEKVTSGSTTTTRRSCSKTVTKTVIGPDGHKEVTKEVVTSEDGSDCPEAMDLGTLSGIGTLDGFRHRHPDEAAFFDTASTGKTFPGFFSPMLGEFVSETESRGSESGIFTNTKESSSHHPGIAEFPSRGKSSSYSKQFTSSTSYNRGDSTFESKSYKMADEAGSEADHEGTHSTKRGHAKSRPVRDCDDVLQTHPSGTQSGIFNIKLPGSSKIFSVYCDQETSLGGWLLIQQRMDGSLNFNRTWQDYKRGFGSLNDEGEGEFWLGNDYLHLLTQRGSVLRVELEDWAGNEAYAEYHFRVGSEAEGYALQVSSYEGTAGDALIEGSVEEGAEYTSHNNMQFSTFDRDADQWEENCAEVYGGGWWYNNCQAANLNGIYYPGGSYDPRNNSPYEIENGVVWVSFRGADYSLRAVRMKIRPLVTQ
Chain of fibrinogen (P02675 45-491, further chain): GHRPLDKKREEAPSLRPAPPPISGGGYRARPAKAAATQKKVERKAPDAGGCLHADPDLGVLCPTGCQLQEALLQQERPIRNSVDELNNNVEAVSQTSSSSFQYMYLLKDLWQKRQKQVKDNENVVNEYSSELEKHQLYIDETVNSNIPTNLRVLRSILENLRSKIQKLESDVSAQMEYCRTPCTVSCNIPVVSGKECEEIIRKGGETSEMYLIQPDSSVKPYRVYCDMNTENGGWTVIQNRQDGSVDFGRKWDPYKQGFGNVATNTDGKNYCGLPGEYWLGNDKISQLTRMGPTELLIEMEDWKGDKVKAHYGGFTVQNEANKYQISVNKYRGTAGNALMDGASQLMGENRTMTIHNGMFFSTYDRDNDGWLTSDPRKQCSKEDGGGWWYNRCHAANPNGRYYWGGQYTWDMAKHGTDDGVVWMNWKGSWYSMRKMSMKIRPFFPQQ
Chain of fibrinogen (P02679 27-453, further chain): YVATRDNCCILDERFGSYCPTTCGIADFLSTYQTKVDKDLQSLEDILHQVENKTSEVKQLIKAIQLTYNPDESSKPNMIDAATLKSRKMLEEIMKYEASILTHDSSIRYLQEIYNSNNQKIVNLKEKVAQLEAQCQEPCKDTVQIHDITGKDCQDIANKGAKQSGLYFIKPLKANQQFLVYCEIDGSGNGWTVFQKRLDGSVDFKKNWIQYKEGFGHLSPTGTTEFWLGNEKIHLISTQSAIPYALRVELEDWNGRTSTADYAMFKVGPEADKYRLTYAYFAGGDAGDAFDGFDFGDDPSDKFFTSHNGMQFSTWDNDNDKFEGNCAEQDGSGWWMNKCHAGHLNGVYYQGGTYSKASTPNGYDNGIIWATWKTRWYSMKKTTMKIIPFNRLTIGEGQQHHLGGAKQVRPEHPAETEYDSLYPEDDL

With fibrinogen (from UniProt P02671), the dissociation constant Kd was 50 µM.
